# Laboratory results: PMC10465592, “Reduced ADP off-rate by the yeast CCT2 double mutation T394P/R510H which causes Leber congenital amaurosis in humans” (Communications Biology, 2023)
# Columns and labels:
# Test in all cases: steady-state ATPase, coumarin-labelled phosphate-binding protein fluorescence, fit to two allosteric transitions
# Format in all cases: biochemical, Saccharomyces cerevisiae
# Conditions in all cases: 25 °C, pH 7.5 Tris-HCl, 10 mM MgCl2, 50 mM KCl, 20% glycerol, 1 mM DTT, first ring (stronger site), cooperative
# [1] = test system: T1, Nc1ncnc2c1ncn2[C@@H]1O[C@H](COP(=O)(O)OP(=O)(O)OP(=O)(O)O)[C@@H](O)[C@H]1O
# T1 construct: native complex from yeast cells, two back-to-back rings each of eight distinct subunits CCT1-CCT8; CCT2 mutations introduced in the chromosomal gene
# Description: steady-state ATPase, coumarin-labelled phosphate-binding protein fluorescence, fit to two allosteric transitions on CCT/TRiC (Saccharomyces cerevisiae) | In the case of the wild-type, the values of the apparent ATP binding constants
# [2] = test system: T1, Nc1ncnc2c1ncn2[C@@H]1O[C@H](COP(=O)(O)OP(=O)(O)OP(=O)(O)O)[C@@H](O)[C@H]1O; remark: listed apart in the source
# Description: steady-state ATPase, coumarin-labelled phosphate-binding protein fluorescence, fit to two allosteric transitions on CCT/TRiC (Saccharomyces cerevisiae) | In the case of the R510H single mutant, the values of the apparent ATP binding
# [3] = test system: T1, Nc1ncnc2c1ncn2[C@@H]1O[C@H](COP(=O)(O)OP(=O)(O)OP(=O)(O)O)[C@@H](O)[C@H]1O; remark: listed apart in the source
# Description: steady-state ATPase, coumarin-labelled phosphate-binding protein fluorescence, fit to two allosteric transitions on CCT/TRiC (Saccharomyces cerevisiae) | In the case of the T394P single mutant, the values of the apparent ATP binding
substance,measurement,setting,value
CCT/TRiC (Saccharomyces cerevisiae) (Saccharomyces cerevisiae S288C),K0.5,[1],8.3 (±1.6) μM
same,kcat,[1],0.043 (±0.005) s^-1
CCT/TRiC (Saccharomyces cerevisiae) (Saccharomyces cerevisiae S288C; P39076:R510H),K0.5,[2],7.1 (±2.4) μM
same,kcat,[2],0.10 (±0.03) s^-1
CCT/TRiC (Saccharomyces cerevisiae) (Saccharomyces cerevisiae S288C; P39076:T394P),K0.5,[3],8.9 (±3.4) μM
same,kcat,[3],0.11 (±0.03) s^-1
